Data published in US20230212549A1 (3B PHARMACEUTICALS, published 2023).
Numbered stars: 1 amine (or outer) side, 2 acyl side, 3 side chain; on linkers, the order of the positions; unused ones are H or OH. Bridge positions count the residues as written; N and C are the ends. Square brackets hold non-standard residues; d marks the D form. Primed or numbered codes have the meaning given here. * marks the point of attachment. TBMB(SCH2CH2NH-DOTA) = O=C(O)CN1CCN(CC(=O)O)CCN(CC(=O)NCCSCc2cc(C[*:1])cc(C[*:2])c2)CCN(CC(=O)O)CC1; Ttds = 1,13-diamino-4,7,10-trioxatridecan-succinamic acid, O=C(CCC(=O)[*:2])NCCCOCCOCCOCCCN[*:1]; 3MeBn = 3-Methylbenzylidene (m-xylylene thioether bridge from α,α′-dibromo-m-xylene); Ttds(4) = spacer between chelator and peptide, O=C(CCC(=O)[*:2])NCCCOCCOCCOCCCN[*:1]; N4Ac = 6-Carboxy-1,4,8,11-tetraazaundecane, an N4-chelator, NCCNCC(CNCCN)C(=O)*; DOTA = O=C(O)CN1CCN(CC(=O)O)CCN(CC(=O)*)CCN(CC(=O)O)CC1; 3Lut = 3,5-lutidylidene (derived from 3,5-lutidine); nBu‑CAyl = n-butylaminocarbonyl, CCCCNC(=O)*; mXylylene = c1cc(C[*:1])cc(C[*:2])c1; PPAc = 4-Carboxymethyl piperazine; Nle = CCCC[C@H](N)C(=O)O; PEG6′ = not defined here; βAla = NCCC(=O)O; Sar = CNCC(=O)O

How the values were obtained:
[1] = target: T1, Human recombinant FAP captured on anti-FAP antibody (SPR) (human, UniProt Q12884 26-760); test: SPR (Biacore), rhFAP captured by anti-FAP antibody; pKD category A = >8.0
T1 construct: whole entry of human FAP named; also called rhFAP

[2] = target: T2, human fibroblast activating protein (FAP) on WI-38 fibroblasts (human, UniProt Q12884 1-760); test: competitive FACS on WI-38 cells vs 3 nM Cy5-labeled peptide; pIC50 category A = >8.0
T2 construct: FAP-expressing human WI-38 fibroblasts (ECACC)

[3] = target: T3, recombinant human PREP (R&D systems, #4308-SE) (human, UniProt P48147 1-710); test: cell-based or functional assay
T3 sequence: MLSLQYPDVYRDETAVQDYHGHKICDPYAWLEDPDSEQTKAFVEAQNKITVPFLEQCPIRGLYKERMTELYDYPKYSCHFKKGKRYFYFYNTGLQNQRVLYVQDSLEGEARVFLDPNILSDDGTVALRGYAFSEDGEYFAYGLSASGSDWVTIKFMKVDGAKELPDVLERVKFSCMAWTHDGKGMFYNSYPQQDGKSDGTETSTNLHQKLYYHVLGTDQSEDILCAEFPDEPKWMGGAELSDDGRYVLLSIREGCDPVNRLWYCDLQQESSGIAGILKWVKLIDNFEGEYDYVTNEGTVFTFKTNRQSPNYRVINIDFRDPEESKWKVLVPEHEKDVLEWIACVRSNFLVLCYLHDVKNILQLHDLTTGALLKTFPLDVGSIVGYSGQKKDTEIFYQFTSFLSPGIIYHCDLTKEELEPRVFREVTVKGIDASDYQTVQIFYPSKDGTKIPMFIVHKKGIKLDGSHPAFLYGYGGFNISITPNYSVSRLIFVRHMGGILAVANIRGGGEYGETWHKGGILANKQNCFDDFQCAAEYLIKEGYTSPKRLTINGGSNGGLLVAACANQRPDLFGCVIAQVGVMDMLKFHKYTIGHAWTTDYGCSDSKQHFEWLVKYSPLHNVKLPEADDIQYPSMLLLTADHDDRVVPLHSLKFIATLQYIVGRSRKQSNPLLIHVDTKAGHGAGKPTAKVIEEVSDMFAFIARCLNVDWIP

[4] = target: Recombinant human DPP4 (R&D systems, #9168-SE) (human, UniProt P27487 29-766); test: cell-based or functional assay
Chain of Recombinant human DPP4 (R&D systems, #9168-SE) (P27487 29-766 limits assumed): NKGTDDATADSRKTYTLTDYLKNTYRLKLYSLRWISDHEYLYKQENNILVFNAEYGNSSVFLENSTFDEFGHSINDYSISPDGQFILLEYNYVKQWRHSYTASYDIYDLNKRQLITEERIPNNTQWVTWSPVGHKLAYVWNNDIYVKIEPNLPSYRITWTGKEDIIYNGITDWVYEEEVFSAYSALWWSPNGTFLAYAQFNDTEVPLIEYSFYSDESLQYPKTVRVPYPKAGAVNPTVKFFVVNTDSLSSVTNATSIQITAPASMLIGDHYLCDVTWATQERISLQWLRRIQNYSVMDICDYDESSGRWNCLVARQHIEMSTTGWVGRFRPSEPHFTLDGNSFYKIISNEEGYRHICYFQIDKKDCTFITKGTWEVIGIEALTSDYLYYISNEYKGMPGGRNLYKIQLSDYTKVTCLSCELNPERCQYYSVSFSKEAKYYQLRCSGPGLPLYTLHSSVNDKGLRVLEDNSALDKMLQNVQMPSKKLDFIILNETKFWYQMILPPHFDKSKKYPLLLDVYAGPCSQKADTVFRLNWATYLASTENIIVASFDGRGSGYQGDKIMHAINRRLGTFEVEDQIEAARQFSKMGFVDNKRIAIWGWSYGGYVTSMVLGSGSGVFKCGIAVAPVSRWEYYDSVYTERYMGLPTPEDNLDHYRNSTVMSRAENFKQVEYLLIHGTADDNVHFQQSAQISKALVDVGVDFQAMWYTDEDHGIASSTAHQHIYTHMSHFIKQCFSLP

[5] = target: T4, Recombinant human FAP (R&D systems, #3715-SE) (human, UniProt Q12884 26-760); test: SPR (Biacore T200), FAP captured on anti-FAP antibody, single cycle kinetics; B = pKD 7.1 to 8.0
T4 construct: bought; in SPR captured on immobilized anti-FAP antibody MAB3715; also called rhFAP; human recombinant FAP

[6] = target: T2, human fibroblast activating protein …; test: competitive FACS on WI-38 cells vs 3 nM Cy5-labeled peptide; pIC50 category C = 6.1-7.0
[7] = target: T2, human fibroblast activating protein …; test: competitive FACS on WI-38 cells vs 3 nM Cy5-labeled peptide; pIC50 category B = 7.1-8.0
[8] = target: T1, Human recombinant FAP captured on …; test: SPR (Biacore), rhFAP captured by anti-FAP antibody; pKD category B = 7.1-8.0

B1: nBu-CAyl-[Cys(tMeBn(DOTA-AET))-Nmg-Pro-Thr-Gln-Phe-Cys]-NH2 (peptide)
peptide: {nBu‑CAyl}-C[Sar]PTQFC-NH2
modifications: linker 1-7 via TBMB(SCH2CH2NH-DOTA)
SMILES: CCCCNC(=O)N[C@H]1CSCc2cc(CSCCNC(=O)CN3CCN(CC(=O)O)CCN(CC(=O)O)CCN(CC(=O)O)CC3)cc(c2)CSC[C@@H](C(N)=O)NC(=O)[C@H](Cc2ccccc2)NC(=O)[C@H](CCC(N)=O)NC(=O)[C@H]([C@@H](C)O)NC(=O)[C@@H]2CCCN2C(=O)CN(C)C1=O
notes: also called 3BP-4621
- pKD [1]: > 8 pkd

Binder: {N4Ac-PPAc-Ttds(4)}-[Nle]CPPTEFC[βAla]-OH (linker 2-8 via 3MeBn, also called 3BP-4784) [N4Ac-PPAc-Ttds-Nle-[C(3MeBn)-PPTEFC]-Bal-OH]
- pIC50 [2]: > 8 pic50
- pKD [1]: > 8 pkd

Binder: {nBu‑CAyl}-CPPTEFC-OH (linker 1-7 via tMeBn(NOPO-AET), also called 3BP-4778) [nBu-CAyl-[C(tMeBn(NOPO-AET))-PPTEFC]-OH]
- pIC50 [2]: > 8 pic50
- pKD [1]: > 8 pkd

B2: DOTA-Ttds-Nle-[Cys(3MeBn)-Pro-Pro-Thr-Glu-Phe-Cys]-NH2 (peptide)
peptide: {DOTA}-[Ttds][Nle]CPPTEFC-NH2
modifications: linker 3-9 via mXylylene
SMILES: CCCC[C@H](NC(=O)CCC(=O)NCCCOCCOCCOCCCNC(=O)CN1CCN(CC(=O)O)CCN(CC(=O)O)CCN(CC(=O)O)CC1)C(=O)N[C@H]1CSCc2cccc(c2)CSC[C@@H](C(N)=O)NC(=O)[C@H](Cc2ccccc2)NC(=O)[C@H](CCC(=O)O)NC(=O)[C@H]([C@@H](C)O)NC(=O)[C@@H]2CCCN2C(=O)[C@@H]2CCCN2C1=O
notes: also called 3BP-3319
- pIC50 (PREP) [3]: 6.2 pIC50
- pIC50 (DPP4) [4]: < 6 pIC50
- pKD [5]: 7.1 to 8 pkd

Binder: {N4Ac-PEG6′-βAla}-[Nle]CPPTEFC-OH (linker 2-8 via 3MeBn, also called 3BP-4779) [N4Ac-PEG6-Bal-Nle-[C(3MeBn)-PPTEFC]-OH]
- pIC50 [6]: 6.1 to 7 pic50

Binder: {N4Ac-PEG6′}-[Nle]CPPTEFC-OH (linker 2-8 via 3Lut, also called 3BP-4773) [N4Ac-PEG6-Nle-[C(3Lut)-PPTEFC]-OH]
- pIC50 [7]: 7.1 to 8 pic50
- pKD [8]: 7.1 to 8 pkd

Binder: {N4Ac-PPAc-Ttds(4)}-[Nle]CPPTEFC-OH (linker 2-8 via 3Lut, also called 3BP-4775) [N4Ac-PPAc-Ttds-Nle-[C(3Lut)-PPTEFC]-OH]
- pIC50 [7]: 7.1 to 8 pic50
- pKD [8]: 7.1 to 8 pkd
